Reference: patent US20220204575A1, “MODULATING SURVIVAL OF THERAPEUTIC CELLS AND METHODS, CELLS AND NUCLEIC ACIDS RELATED THERETO” (The Regents of the University of California, priority 2019, published 2022)

Columns and labels:
primary human T cells = assay: Constitutive overexpression of pro-apoptotic BCL-2 family proteins in T cells, FACS at culture day 12; type: cell-based; details: constitutive expression
Method: The abilities of several pro-apoptotic proteins (e.g., BIM, truncated Bid (tBID), and BAD) to induce T cell apoptosis when synthetically overexpressed from a constitutive promoter were tested. The tested T cells were also engineered to constitutively overexpress anti-apoptotic BCL-2.
Without being bound by theory, these effects were likely due to leaky expression of BIM, the high effectiveness of BIM in inducing apoptosis, or a combination thereof.

[1] = tested on: human primary CD4 T cells; assay: Anti-Her2 synNotch driving pro-apoptotic BCL-2 family protein X, T cell survival with antigen-expressing target cells; type: cell-based; details: for induced apoptosis of T cells: in the presence of antigen-expressing target cells
Method: For example, a circuit was designed, as schematically depicted in FIG. 27, with an anti-Her2 synNotch driving expression of a pro-apoptotic BCL-2 family protein “X”, where X stands for the various pro-apoptotic BCL-2 family members were tested in the depicted circuit. As shown, upon the anti-Her2 scFv portion of the synNotch receptor binding Her2 expressed by a target cell, the transcription factor (TF) portion of the synNotch, containing Gal4-VP64, is released and inducing expression of the pro-apoptotic BCL-2 family protein “X”. The level of induced apoptosis in the presence of cells expressing the target antigen, as compared to control cells not expressing the target antigen, was then assessed.
Results of testing BID, tBID, PUMA, BMF, HRK and BIK as pro-apoptotic BCL-2 family protein “X” in this system are shown in FIG. 28, along with a negative control employing BFP in place of the pro-apoptotic BCL-2 family protein “X”.
Thus, the therapeutic cells encoding the BID circuit were able to survive BID induction.

Row | Molecule | ability to drive T cell death (primary human T cells; in the absence of overexpressed BCL-2) | ability to induce T cell apoptosis / drive T cell death (primary human T cells; with constitutive overexpression of BCL-2, culture day 12) | induced apoptosis of T cells [1] | relative level of induced therapeutic cell killing ([1]; comparison among tBID, PUMA, BMF, HRK and BIK)
1 | BAD: pro-apoptotic BH3-only BCL-2 family protein, UniProt Q92934, heterologously expressed in T cells (protein, UniProt Q92934 1-168, looked up) Bcl2-associated agonist of …: MFQIPEFEPSEQEDSSSAERGLGPSPAGDGPSGSGKHHRQAPGLLWDASHQQEQPTSSSHHGGAGAVEIRSRHSSYPAGTEDDEGMGEEPSPFRGRSRSAPPNLWAAQRYGRELRRMSDEFVDSFKKGLPRPKSAGTATQMRQSSSWTRVFQSWWDRNLGRGSSAPSQ | insufficient to drive T cell death | insufficient to drive T cell death |  | 
2 | PUMA: pro-apoptotic PUMA protein, human UniProt Q9BXH1 (protein, UniProt Q9BXH1 1-193, looked up) Bcl-2-binding component 3, …: MARARQEGSSPEPVEGLARDGPRPFPLGRLVPSAVSCGLCEPGLAAAPAAPTLLPAAYLCAPTAPPAVTAALGGSRWPGGPRSRPRGPRPDGPQPSLSLAEQHLESPVPSAPGALAGGPTQAAPGVRGEEEQWAREIGAQLRRMADDLNAQYERRRQEEQQRHRPSPWRVLYNLIMGLLPLPRGHRAPEMEPN |  |  | induce apoptosis of human primary CD4 T cells | 
3 | BIK: pro-apoptotic BIK protein, human UniProt Q13323, SEQ ID NO: 104 (protein) MSEVRPLSRDILMETLLYEQLLEPPTMEVLGMTDSEEDLDPMEDFDSLECMEGSDALALRLACIGDEMDVSLRAPRLAQLSEVAMHSLGLAFIYDQTEDIRDVLRSFMDGFTTLKENIMRFWRSPNPGSWVSCEQVLLALLLLLALLLPLLSGGLHLLLK |  |  | induce apoptosis of human primary CD4 T cells | lower level of induced therapeutic cell killing
